According to article PMC4284922:
Each block holds one molecule with its values, some of them ahead of it.

Assays:
[1] = target: STAT1 (Homo sapiens) (UniProt P42224); assay: analytical ultracentrifugation; conditions: cited from earlier work
[2] = target: T1, untagged STAT1, wild type (human), P42224; assay: native gel or EMSA; extracts with GFP-tagged and with untagged STAT1 mixed and co-incubated for 0, 15 or 30 min at room temperature with [33P]-labelled M67 (single GAS site); band of intermediate mobility; conditions: remark: other sources report otherwise
T1 chain: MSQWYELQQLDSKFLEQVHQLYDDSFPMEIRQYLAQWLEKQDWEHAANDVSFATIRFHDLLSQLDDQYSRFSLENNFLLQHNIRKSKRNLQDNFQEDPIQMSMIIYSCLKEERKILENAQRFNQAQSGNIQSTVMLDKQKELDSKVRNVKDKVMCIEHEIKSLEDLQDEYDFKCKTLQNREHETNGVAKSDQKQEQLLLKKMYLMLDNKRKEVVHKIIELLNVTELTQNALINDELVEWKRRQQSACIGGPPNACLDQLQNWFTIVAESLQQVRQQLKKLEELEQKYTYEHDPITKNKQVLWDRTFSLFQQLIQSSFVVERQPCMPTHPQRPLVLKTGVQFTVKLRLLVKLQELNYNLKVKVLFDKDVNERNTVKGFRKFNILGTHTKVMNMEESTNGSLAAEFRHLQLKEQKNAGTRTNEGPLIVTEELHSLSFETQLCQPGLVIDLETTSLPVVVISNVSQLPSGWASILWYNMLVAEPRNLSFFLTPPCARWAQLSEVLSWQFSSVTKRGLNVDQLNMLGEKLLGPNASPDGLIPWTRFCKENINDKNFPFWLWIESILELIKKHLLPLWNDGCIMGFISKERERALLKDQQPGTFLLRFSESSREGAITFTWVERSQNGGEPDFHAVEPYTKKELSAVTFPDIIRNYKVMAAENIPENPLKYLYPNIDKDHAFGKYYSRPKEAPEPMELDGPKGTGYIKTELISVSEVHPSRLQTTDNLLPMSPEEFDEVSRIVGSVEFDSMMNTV

Molecule: STAT1 (from UniProt P42224)
- Kd [1]: 50 nM

- half-life of the dimer [2]: > 10 min
B1: untagged STAT1, wild type, P42224 1-750 (natural protein)
chain: T1 chain
modifications: here or on the partner: phosphotyrosine at 701 (tyrosine-phosphorylated, from IFNγ-stimulated cells); phosphotyrosine at 701 (tyrosine-phosphorylated, from IFNγ-stimulated cells)
